Measured values as given in the RNAGym collection of RNA variant scans (doi:10.1073/pnas.2313332121).

B1: TPR t1 (parent)
chain: GACCAAUCUGCCCUCAGAGCUCGAGAACAUCUUCGGAUGCAGAGGAGGCAGGCUUCGGUGGCGCGAUAGCGCCAACGUCCUCAACCUCCAAUGCAUCCCACCACAUGAUGAUGCCUGAAGAGCCUUGGUUUUUUG

Variants of: B1
Test: polymerase ribozyme fitness, log enrichment relative to wild type (log ratio); higher = more active; in vitro selection for triplet polymerase activity
In short: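 Each subunit of a heterodimeric triplet polymerase ribozyme was represented by a PCR-built, transcribed mutant library that underwent triplicate single-round in vitro selection with frozen incubation at −7 °C. Extended constructs were recovered by gel excision, streptavidin-bead capture and RT-PCR, and Illumina sequencing of input and output libraries kept genotypes with ≥10 input reads and ≥1 read per output. Fitness is the logarithm of genotype enrichment relative to wild-type enrichment, from inverse-variance-weighted replicate averages, with a logarithm base of 2.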

Variant | polymerase ribozyme fitness (log ratio)
A24G G69C C85G | -4.96
A27G G69C C102U | -4.65
G25U C64G C88A G110A G120C C123U | -6.08
A26G C89G C102U U112A G120A | -5.43
C28U A50U C70A U106A G110A C114A | -5.71
G25A C72A C86G | -6.66
C28U C73U U81A U106C | -3.5
A24G U38G C56A C80A | -5.92
C28G G113C | -6.23
A26G G71U C88G G120C | -3.91
A24G G57C A91G | -2.98
G25U C56A | -4.45
A26G C28G C104U | -2.85
A26G G51U C101U | -5.8
A26G A29G C80G C86U A119G | -3.74
C28U A105U U112C | -4.9
A26G A37U C49U G120U | -2.45
C28G U54G C62U | -3.83
A27C G61U | -3.27
A26U U81A | -4.77
A26U C62U U129A | -5.15
A27C C62A A119G A121U | -2.98
C28A G45A | -5.12
A26U C56U C72U | -3.04

Variant | polymerase ribozyme fitness (log ratio)
A27C G60A | -3.37
A26G G113U | -4.2
A26U A41C A46U C101U | -6.28
A27U C70A C115G U130G | -6.2
A27G G69A | -2.88
A26C A83C | -5.16
C28G U92G G117A A121G | -4.67
C28A G45U C72A C115A | -6.12
C28A A66C A111U C115G | -6.53
C28G G44A A46G A90C | -4.5
A26C A43G G63C G69A C115G | -4.47
A26G A37U C53G | -3.12
A24G U59A U78C C85G U106G | -3.94
A27G G47A C53G | -2.77
A26G C40U G63C C79A C101U G117A | -5.91
A26G G69U C70A G113U | -4.8
C28G C40A C94U G110C | -0.668
A26G G77U | -2.79
C28U A37C G71U | -3.01
A26C U106A G122A | -2.97
A27U U54A U112C G122A | -2.2
C28U C123U | -0.507
C28A U112C U116G U130A U132C | -5.19
C28A U132C | -4.37

Variant | polymerase ribozyme fitness (log ratio)
A26U A66G U112G | -5.69
A27C C104U | -3.21
A24G U54G G57C C72U C73G C124U | -3.92
A26G G61A C82A U112A U131C | -0.172
A26G A29G A66U C72G U78A A118U | -3.89
C28U A46U G48A A95G C124G | -3.31
C28U A100C C102U U112C | -4.83
A24U U30G G63U C102G | -5.42
C28G C72A | -3.15
A26G U112A | -0.933
G25U G110U | -5.41
A27C G69U C73A | -1.89
A26U C98U | -4.2
A26C G60C | -6.06
C28G C53A C88U C124A | -1.3
A26U C53U G69C C115G G117C U133G | -6.29
A27C G71A | -4
A27U A66C A83U | -4.44
A27U G69U U132C | -1.95
A27G C62G A83G C86U | -5.4
C28A C72A | -3.59
A27G A50U | -2.6
A27U G47C G48A U78C A95G | -5.5
C28U C79U | -1.61

Variant | polymerase ribozyme fitness (log ratio)
A26C C53U C56G | -5.02
A27G C70U C80A | -4.47
A26U G69U C79G | -3.29
A26G G60C C86G | -3.98
A24U C72U | -5.63
A26U C73U U81A | -3.86
C28G U32C A91U C114U A119G | -6.71
A27U C72G | -3.21
A26G G61C C86U | -4.37
A27U A41U C49U C72U | -5.06
G25A G47A C72G C76U U87G C114G | -5.41
G25A C28A C31G G63U A74G C99U | -7.56
A27U A43U G48A C88A C123A | -4.03
A27G U106G U112G | -1.51
A26G A29G C72G U78A A118U | -3.07
A27U A46C U116C | -6.31
A26G G39A C49U C64U | -3.32
A26U C62U | -3.59
C28A C85U | -4.56
C28U A43G G69U G113A | -1.82
A26C G117C G122A | -7.15
A27U C62A C101U A119U | -5.17
A26U U129G | -3.51
C28A C40G | -6.86

Variant | polymerase ribozyme fitness (log ratio)
G25U A121C | -4.83
A26C G61A | -3.85
C28U C70U C88U | -3.74
A26C G120C G127A | -5.53
C28A C40G G44C G51A U112A | -6.79
A24U G39A C72A U112C | -7.11
A26C G39C C104U U106A G120A | -5.96
A24G G117C G128A | -6.86
A27U G61C | -5.97
A26U G42C C62U C70A C88U G117U | -6.33
A26G U30C | -4.29
A27U G113U | -4.99
A27G A50G U81A | -1.56
A24G U87G | -2.03
A27G U129C | -3.02
A24U G61U C88A G117C | -6.74
G25C G69U | -4.39
A26U U54C C72U U133A | -2.18
C28A G35C G61A A84C A103G C114A G117C | -7.02
C28U A50U | -2.92
A27U C97A | -7.67
G25U C72U G110U C114U | -6.32
A27U U96G G110U | -7.43
A26G C53U C101A | -3.58

Variant | polymerase ribozyme fitness (log ratio)
A26C G47U C56U U112C | -5.64
A26U A66G | -4.28
C28G A41C C64U C115A | -2.93
A24G U109C | -5.04
A27U A84U | -3.79
A27U A84G | -4.18
A27U A37C A91G C94U U106C | -5.4
A24U C124A | -3.28
A26G G71A A84C C89U G93C C114U | -6.05
A27U A50C | -3.87
A27U G47U C56U | -4.13
A26C C34U G36U C72A | -6.66
A27C C56G U78C C80U U81A | -3.58
A26U C115U | -4.53
C28A G120C | -2.79
A27C U112C G120C U126C U131A | -3.22
C28G G48U U92G C124A | -5.41
C28U A41G A121C | -0.919
A27G A50G C72U U81A | -2
A26G C49A U55C C62U G63A A83C U109A G113A | -6.66
A26G G36A A108U C123G | -5.15
A26G C40U G63C U81C U130A | -4.66
C28U C53A G93U | -4.15
A26G C72A C86G A111U G122U | -3.76

Variant | polymerase ribozyme fitness (log ratio)
C28G G71A A83G U87G A119U | -5.64
A27U C53A C72U | -3.4
A27U C82G U106A G120C | -1.62
C28G U106A G117C | -5.9
A27G U125G | -2.34
G25U G36U | -6.39
A27G C49A | -2
A27G C56A | -2.09
A26C G39U C124G | -4.33
A27U U32A C72U C114A | -5.96
A26G A27U G36A U112G U129G | -5.51
A27G C49G G63U C89G G117C | -7.01
A26U C89A | -6.44
C28G C86A G120C | -2.11
A27U C73U | -2.99
C28A A83U G110U | 1.66
C28U A119G | -1.04
A26U A95G | -2.46
C28A G69C C124A | -4.58
A27U C123U | -1.65
A27U C123G | -0.165
A27G C76U C89U G93A | -3.34
A27U C28G G63U G110C | -5.36
